Paper PMC9098913, “In vitro reconstitution of Escherichia coli divisome activation” (Nature Communications, 2022)

Assay: Membrane off-binding rate (koff) of FtsA from FRAP
Excerpt: We could also use the data from these bleaching experiments to quantify the membrane-binding kinetics and diffusion of membrane-bound proteins by analysing the change of the fluorescence profile during recovery.
Equimolar concentrations of Cy3- and Cy5-labelled FtsA, supplemented with 20% unlabelled FtsA were used to study FRET and FRAP. Five pre-bleach frames were acquired, followed by acceptor photobleaching of a rectangular ROI with 40% 641 nm laser power and a dwell size of 1 µs/pixel, 75% overlapping lines. The recovery of the signal or the increase in donor intensity were measured with either two frames or one frame per second.
Bleaching the acceptor dye leads to an increase in the donor intensity, which can be used to quantify the Foerster Resonance energy transfer (FRET)[48]. FRET efficiency was quantified with E%=Ipost/Ipost+Ipre⋅100 , where Ipost is the intensity of the […] and Ipre is the […]. […] To extract the contribution of both processes, we adjusted a routine recently published by Gerganova et al.[33]. In short, the code provides the contribution of both modes of recovery by analysing the shape of the fluorescence recovery profile. […] Contribution of diffusion leads to a change of the slope of the outer borders of the bleached region (S4h right). Thus, by measuring the change of the slope of the border recovery, diffusion and simple on/off binding can be distinguished. We developed “FRAPdiff”, a graphical user interface, which uses the original fit routine by David Rutkowski. It can be used directly on.tiff movies with annotated bleach regions as ImageJ ROIs. In addition, we added optional bleach correction, user selectable projection axis (x or y), and optional mirroring of the recovery profiles, if bleaching was not symmetric. The original fit routine for estimating the recovery and diffusion dynamics can be found at https://github.com/davidmrutkowski/1DReflectingDiffusion. FRAPdiff is available at 10.5281/zenodo.6400639[49] under the GPLv3 open-source license.

B1: FtsA R286W (protein)
chain: MIKATDRKLVVGLEIGTAKVAALVGEVLPDGMVNIIGVGSCPSRGMDKGGVNDLESVVKCVQRAIDQAELMADCQISSVYLALSGKHISCQNEIGMVPISEEEVTQEDVENVVHTAKSVRVRDEHRVLHVIPQEYAIDYQEGIKNPVGLSGVRMQAKVHLITCHNDMAKNIVKAVERCGLKVDQLIFAGLASSYSVLTEDERELGVCVVDIGGGTMDIAVYTGGALRHTKVIPYAGNVVTSDIAYAFGTPPSDAEAIKVRHGCALGSIVGKDESVEVPSVGGRPPWSLQRQTLAEVIEPRYTELLNLVNEEILQLQEKLRQQGVKHHLAAGIVLTGGAAQIEGLAACAQRVFHTQVRIGAPLNITGLTDYAQEPYYSTAVGLLHYGKESHLNGEAEVEKRVTASVGSWIKRLNSWLRKEF
modifications: Cy3 or Cy5 at the N-terminus in the labelled form (labelled CLEPTGG peptide conjugated to the 5xGly tag by sortagging); unlabelled protein also used; left off: TwinStrep-SUMO, N-terminal, cleaved | 5x
- Off binding rate, mean (0.1 µM FtsA + FtsN&Z): 0.0939 s
- Off binding rate, mean (0.1 µM FtsA + FtsN): 0.062 s
- Off binding rate, mean (0.1 µM FtsA + FtsZ): 0.204 s
- Off binding rate (0.1µM FtsA alone, Mean, n=6): 0.3263
- Off binding rate, mean (0.1 µM FtsA alone): 0.326 s
- Off binding rate (0.1µM FtsA alone, replicate Exp.1): 3.18E-01
- Off binding rate (0.1µM FtsA alone, replicate Exp.2): 1.79E-01
- Off binding rate (0.1µM FtsA alone, replicate Exp.3): 4.12E-01
- Off binding rate (0.1µM FtsA alone, replicate Exp.4): 4.03E-01
- Off binding rate (0.1µM FtsA alone, replicate Exp.5): 3.20E-01
- Off binding rate (0.1µM FtsA alone, replicate Exp.6): 3.25E-01
- Off binding rate (0.1µM, + FtsN&Z, Mean, n=3): 0.0939
- Off binding rate (0.1µM, + FtsN&Z, replicate Exp.1): 1.11E-01
- Off binding rate (0.1µM, + FtsN&Z, replicate Exp.2): 5.81E-02
- Off binding rate (0.1µM, + FtsN&Z, replicate Exp.3): 1.13E-01
- Off binding rate (0.1µM, + FtsN, Mean, n=3): 0.0620
- Off binding rate (0.1µM, + FtsN, replicate Exp.1): 5.84E-02
- Off binding rate (0.1µM, + FtsN, replicate Exp.2): 3.36E-02
- Off binding rate (0.1µM, + FtsN, replicate Exp.3): 9.39E-02
- Off binding rate (0.1µM, + FtsZ, Mean, n=4): 0.2040
- Off binding rate (0.1µM, + FtsZ, replicate Exp.1): 1.08E-01
- Off binding rate (0.1µM, + FtsZ, replicate Exp.2): 3.38E-01
- Off binding rate (0.1µM, + FtsZ, replicate Exp.3): 3.22E-01
- Off binding rate (0.1µM, + FtsZ, replicate Exp.4): 4.74E-02
- Off binding rate, mean (0.2 µM FtsA + FtsN&Z): 0.099 s
- Off binding rate, mean (0.2 µM FtsA + FtsN): 0.171 s
- Off binding rate, mean (0.2 µM FtsA + FtsZ): 0.227 s
- Off binding rate (0.2µM FtsA alone, Mean, n=6): 0.2513
- Off binding rate, mean (0.2 µM FtsA alone): 0.251 s
- Off binding rate (0.2µM FtsA alone, replicate Exp.1): 2.65E-01
- Off binding rate (0.2µM FtsA alone, replicate Exp.2): 3.55E-01
- Off binding rate (0.2µM FtsA alone, replicate Exp.3): 3.00E-01
- Off binding rate (0.2µM FtsA alone, replicate Exp.4): 1.69E-01
- Off binding rate (0.2µM FtsA alone, replicate Exp.5): 2.80E-01
- Off binding rate (0.2µM FtsA alone, replicate Exp.6): 1.38E-01
- Off binding rate (0.2µM, + FtsN&Z, Mean, n=6): 0.0990
- Off binding rate (0.2µM, + FtsN&Z, replicate Exp.1): 2.98E-02
- Off binding rate (0.2µM, + FtsN&Z, replicate Exp.2): 2.05E-01
- Off binding rate (0.2µM, + FtsN&Z, replicate Exp.3): 6.45E-02
- Off binding rate (0.2µM, + FtsN&Z, replicate Exp.4): 4.84E-02
- Off binding rate (0.2µM, + FtsN&Z, replicate Exp.5): 1.35E-01
- Off binding rate (0.2µM, + FtsN&Z, replicate Exp.6): 1.11E-01
- Off binding rate (0.2µM, + FtsN, Mean, n=4): 0.1710
- Off binding rate (0.2µM, + FtsN, replicate Exp.1): 5.13E-02
- Off binding rate (0.2µM, + FtsN, replicate Exp.2): 3.51E-01
- Off binding rate (0.2µM, + FtsN, replicate Exp.3): 1.05E-01
- Off binding rate (0.2µM, + FtsN, replicate Exp.4): 1.76E-01
- Off binding rate (0.2µM, + FtsZ, Mean, n=6): 0.2270
- Off binding rate (0.2µM, + FtsZ, replicate Exp.1): 2.24E-01
- Off binding rate (0.2µM, + FtsZ, replicate Exp.2): 4.14E-01
- Off binding rate (0.2µM, + FtsZ, replicate Exp.3): 9.28E-02
- Off binding rate (0.2µM, + FtsZ, replicate Exp.4): 4.05E-01
- Off binding rate (0.2µM, + FtsZ, replicate Exp.5): 1.38E-01
- Off binding rate (0.2µM, + FtsZ, replicate Exp.6): 8.76E-02
- Off binding rate, mean (0.4 µM FtsA + FtsN&Z): 0.101 s
- Off binding rate, mean (0.4 µM FtsA + FtsN): 0.18 s
- Off binding rate, mean (0.4 µM FtsA + FtsZ): 0.179 s
- Off binding rate (0.4µM FtsA alone, Mean, n=9): 0.3738
- Off binding rate, mean (0.4 µM FtsA alone): 0.374 s
- Off binding rate (0.4µM FtsA alone, replicate Exp.1): 7.99E-01
- Off binding rate (0.4µM FtsA alone, replicate Exp.2): 6.65E-01
- Off binding rate (0.4µM FtsA alone, replicate Exp.3): 6.54E-01
- Off binding rate (0.4µM FtsA alone, replicate Exp.4): 2.78E-01
- Off binding rate (0.4µM FtsA alone, replicate Exp.5): 1.57E-01
- Off binding rate (0.4µM FtsA alone, replicate Exp.6): 1.25E-01
- Off binding rate (0.4µM FtsA alone, replicate Exp.7): 2.26E-01
- Off binding rate (0.4µM FtsA alone, replicate Exp.8): 2.05E-01
- Off binding rate (0.4µM FtsA alone, replicate Exp.9): 2.55E-01
- membrane exchange (off-rate) (0.4 µM FtsA, p-value 6.73 × 10^−6): 0.37 ± 0.24 s⁻¹
- Off binding rate (0.4µM, + FtsN&Z, Mean, n=9): 0.1008
- Off binding rate (0.4µM, + FtsN&Z, replicate Exp.1): 3.83E-02
- Off binding rate (0.4µM, + FtsN&Z, replicate Exp.2): 7.71E-02
- Off binding rate (0.4µM, + FtsN&Z, replicate Exp.3): 4.63E-02
- Off binding rate (0.4µM, + FtsN&Z, replicate Exp.4): 2.42E-01
- Off binding rate (0.4µM, + FtsN&Z, replicate Exp.5): 1.75E-01
- Off binding rate (0.4µM, + FtsN&Z, replicate Exp.6): 5.12E-02
- Off binding rate (0.4µM, + FtsN&Z, replicate Exp.7): 5.06E-02
- Off binding rate (0.4µM, + FtsN&Z, replicate Exp.8): 1.16E-01
- Off binding rate (0.4µM, + FtsN&Z, replicate Exp.9): 1.11E-01
- Off binding rate (0.4µM, + FtsN, Mean, n=6): 0.1799
- Off binding rate (0.4µM, + FtsN, replicate Exp.1): 1.51E-01
- Off binding rate (0.4µM, + FtsN, replicate Exp.2): 4.77E-02
- Off binding rate (0.4µM, + FtsN, replicate Exp.3): 2.92E-01
- Off binding rate (0.4µM, + FtsN, replicate Exp.4): 2.85E-01
